The supplement of paper PMC9170038

Test system: MS2 coat protein
Experiment: apparent KD of MS2 coat protein; designed switch direction (-1 OFF switch, 1 ON switch): -1; higher = weaker reporter binding
In short: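 Stalled E. coli RNA polymerase transcribed designed RNA switches on Illumina chips, which were then titrated with SNAP-549-labelled MS2 coat protein, doubling from 0.7 or 1.5 nM to 3 µM. Steps lasted from 0.8–1.5 h at the lowest concentration to 10–20 min at the highest. The apparent KD is each design's median over clusters of curve-fitted normalised fluorescence.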

[1] = input ligand: microRNA oligo, concentration not stated
[2] = Eterna round: R95, input ligand: FMN 200 uM
[3] = Eterna round: R95, input ligand: microRNA oligo, concentration not stated
[4] = Eterna round: R95, input ligand: none

| Sequence | apparent KD of MS2 coat protein (input ligand: FMN 200 uM) | apparent KD of MS2 coat protein (input ligand: none) | apparent KD of MS2 coat protein [1] | apparent KD of MS2 coat protein [2] | apparent KD of MS2 coat protein [3] | apparent KD of MS2 coat protein [4] |
| --- | --- | --- | --- | --- | --- | --- |
| AGAAGGAAAGUGAGGAUAUGCUCUACCUCGGUAGAGCAGAAGGCACAUGAGGAUCACCCAUGUGACUCCUCAUU [Omei Ex4B B26] (Eterna round: R97, puzzle: Brourd's mod of Exclusion 4) | 29.2 nM | 19.5 nM | – | – | – | – |
| AGAAGUAAAUAAGGAUAUCCAUGGGAGAGUGAAGGAGAAGGUAUAAUGUAUUCCAAUGUACCCACUAGGAGUACAAGAUGUUGA [Default title] (Eterna round: R96, puzzle: Exclusion NG 1) | 47.9 nM | 23.1 nM | 4.55 nM | – | – | – |
| AGAAGUAGAAACCGAUCCUACAUGAGGAUCACCCAUGUAGCAAGACGUGCACGCGAAGCUCGUCAGACUACCAGACG [salish99_TOv1_r3_019] (puzzle: Sensor v3, turn-off variant 1) | – | – | – | 152 nM | 175 nM | 249 nM |
| AGACAAACUGCAGGAUAUUGGCUGACUGCAGGUCAAGAAGGGCAGGACAUGAGGAUCACCCAUGUUCAGUAAACAGGGAGUCCU [Eternabot solution 14] (Eterna round: R96, puzzle: Exclusion NG 1) | 309 nM | 46.6 nM | 43.7 nM | – | – | – |
| AGACAACAUGAGGAUCACCCAUGUAAGGAUAUACAAGAUUUGAGAAACGGACUGCCUUGUAGAAGGUACAGGUG [Eternabot (L2) Solution 9] (Eterna round: R97, puzzle: Exclusion 1) | 51 nM | 36.7 nM | – | – | – | – |
| AGACCACAUGAGGAUCACCCAUGUCAGGAUAUCGACUGAACAGCUUCGGCUGUUCAGUCGAGAAGGGACAAUUA [Brourdxlusion 8 - Jieux - Exclusion 1] (Eterna round: R97, puzzle: Exclusion 1) | 60 nM | 52.7 nM | – | – | – | – |
| AGAGAACAUGAGGAUCACCCAUGUAAGGAUAUGCGAAGAGUUCGGAGAGGUUGAGGAGGCAGAAGGUACAGGAG [JR_Exclu1_Sub042] (puzzle: Exclusion 1) | – | – | – | 30.5 nM | 31.4 nM | 33.1 nM |
| AGAGACCGAGGAUAUACAUGAGGAUCACCCAUGUUGUUAGGUGAUGGAUUAAUGAUUGGUAGAAGGCGGAGAGA [Seems to work] (Eterna round: R97, puzzle: Exclusion 3) | 340 nM | 227 nM | – | – | – | – |
| AGAGAGUCAGGAUAUCGAAGGUAGUGGAGAGGAGUGUGGUACGAGAAGGGACAUGAGGAUCACCCAUGUAGGAG [JR_Exclusion4)Sub008] (puzzle: Exclusion 4) | – | – | – | 31 nM | 35.4 nM | 33.2 nM |
| AGAGAGUCAGGAUAUCGGUGUGCGAGGAGAGGAGAGAGAGACGAGAAGGGACAUGAGGAUCACCCAUGUAGGUG [JR_Exclusion4)Sub019] (puzzle: Exclusion 4) | – | – | – | 366 nM | 389 nM | 318 nM |
| AGAGCUGCCCAUGACCGCAAGCUUUUUGCUUGUCUUACCACAUGAGGAUCACCCAUGUGACAUGGGCUCCUUAUAAA [Azavees] (puzzle: Sensor v3, turn-off variant 2) | – | – | – | 13.9 nM | 9.41 nM | 13.3 nM |
| AGAGUACUGCGAGGAUAUACAUGAGGAUCACCCAUGUAAAAGUGUGAGGCAAAGCCUCACACUAUGUAGAAGGCGCAGUACUCA [Mat - Exclusion NG 2 - Mod of JL - D12] (Eterna round: R96, puzzle: Exclusion NG 2) | 19 nM | 18.2 nM | 9.76 nM | – | – | – |
| AGAGUAGGCAUAGGAUAUCCGAAAGGAAGUGUAGGAGAAGGAUGUCGAGACAUGAGGAUCACCCAUGUGAUGCUUAGUCGAAAG [PowerStrip EXNG 1.18] (Eterna round: R96, puzzle: Exclusion NG 1) | 359 nM | 50.8 nM | 61.1 nM | – | – | – |
| AGAGUGCUGCGAGGAUAUACAUGAGGAUCACCCAUGUAUUAGUGUGAGGCAAAGCCUCACACAAUGUAGAAGGCGCAGUACUCA [Mat - Exclusion NG 2 - Mod of JL - D9] (Eterna round: R96, puzzle: Exclusion NG 2) | 8.83 nM | 18.4 nM | 12.2 nM | – | – | – |
| AGAGUGCUGCGAGGAUAUACAUGAGGAUCACCCAUGUGGAUCUGUGAGGCAAAGCCUCACAGGAUGUAGAAGGCGCAGUACUCA [Mat - Exclusion NG 2 - Mod of JL - D49] (Eterna round: R96, puzzle: Exclusion NG 2) | 156 nM | 28.9 nM | 23.4 nM | – | – | – |
